From the Human Domainome abundance scans (Beltran et al. 2025)
± gives the uncertainty stated by the source.

B1: Pre-mRNA-processing factor 40 homolog B, residues 274 to 332; numbered along this chain, Q6NWY9 (parent)
chain: SNREKAKQAFKELLRDKAVPSNASWEQAMKMVVTDPRYSALPKLSEKKQAFNAYKAQRE

Variants of: B1
Assay: abundance fitness (aPCA) (normalised: wild type 0, dead -1); higher = more abundant; growth selection in yeast, the domain comes from the species named
Conditions: Homo sapiens

In order of rising abundance fitness:
1. D35Y  -1.38 ± 0.31
2. R37Y  -1.25 ± 0.33
3. D35W  -1.21 ± 0.12
4. D35R  -1.12 ± 0.093
5. D35K  -1.11 ± 0.18
6. E46R  -1.04 ± 0.072
7. E46F  -1.03 ± 0.15
8. D35F  -0.951 ± 0.26
9. D35I  -0.94 ± 0.2
10. E46K  -0.939 ± 0.17
11. D35P  -0.905 ± 0.14
12. R37F  -0.905 ± 0.21
13. E46I  -0.872 ± 0.17
14. D35L  -0.853 ± 0.1
15. D35V  -0.85 ± 0.079
16. R37W  -0.836 ± 0.085
17. D35Q  -0.823 ± 0.16
18. E46P  -0.817 ± 0.11
19. L44Y  -0.809 ± 0.22
20. P36Y  -0.806 ± 0.13
21. L41H  -0.785 ± 0.23
22. R37H  -0.776 ± 0.19
23. E46Y  -0.755 ± 0.19
24. P42F  -0.749 ± 0.21
25. D35G  -0.742 ± 0.063
26. R37D  -0.74 ± 0.16
27. L44H  -0.736 ± 0.17
28. V32W  -0.732 ± 0.091
29. E46L  -0.73 ± 0.085
30. E46H  -0.724 ± 0.18
31. E46S  -0.716 ± 0.083
32. D35S  -0.716 ± 0.097
33. D35T  -0.714 ± 0.13
34. R37M  -0.705 ± 0.094
35. D35A  -0.701 ± 0.083
36. D35M  -0.699 ± 0.12
37. E46G  -0.694 ± 0.055
38. E46V  -0.672 ± 0.073
39. P36W  -0.669 ± 0.092
40. R37C  -0.668 ± 0.12
41. R37T  -0.658 ± 0.12
42. E46T  -0.631 ± 0.11
43. P36L  -0.63 ± 0.07
44. P42N  -0.628 ± 0.17
45. V32F  -0.619 ± 0.13
46. T34I  -0.611 ± 0.11
47. P36M  -0.607 ± 0.1
48. P42W  -0.602 ± 0.084
49. R37L  -0.6 ± 0.081
50. V32R  -0.599 ± 0.064
51. V32Y  -0.583 ± 0.12
52. R37G  -0.577 ± 0.051
53. L44F  -0.574 ± 0.31
54. E46N  -0.566 ± 0.15
55. L44W  -0.561 ± 0.089
56. T34P  -0.554 ± 0.11
57. L41R  -0.552 ± 0.061
58. T34W  -0.544 ± 0.083
59. S39P  -0.527 ± 0.14
60. E46C  -0.519 ± 0.12
61. L41S  -0.519 ± 0.065
62. P42C  -0.518 ± 0.1
63. R37Q  -0.49 ± 0.11
64. V32A  -0.489 ± 0.079
65. L41W  -0.486 ± 0.081
66. R37E  -0.479 ± 0.082
67. P42H  -0.477 ± 0.22
68. E46A  -0.466 ± 0.07
69. L41A  -0.451 ± 0.065
70. L44N  -0.448 ± 0.19
71. P36H  -0.445 ± 0.21
72. L41N  -0.443 ± 0.17
73. V32P  -0.439 ± 0.11
74. L41D  -0.439 ± 0.12
75. L41C  -0.438 ± 0.14
76. V32Q  -0.428 ± 0.14
77. T34V  -0.419 ± 0.073
78. P36N  -0.418 ± 0.17
79. P42V  -0.418 ± 0.071
80. D35N  -0.415 ± 0.15
81. E46M  -0.413 ± 0.095
82. P36G  -0.391 ± 0.059
83. T34F  -0.382 ± 0.15
84. P36C  -0.381 ± 0.11
85. V32G  -0.381 ± 0.055
86. D35E  -0.372 ± 0.084
87. L41K  -0.372 ± 0.095
88. P36S  -0.366 ± 0.075
89. T34L  -0.358 ± 0.066
90. P36V  -0.353 ± 0.074
91. V32D  -0.347 ± 0.091
92. V32S  -0.343 ± 0.075
93. S39L  -0.342 ± 0.084
94. L41Y  -0.34 ± 0.2
95. L44T  -0.337 ± 0.12
96. P42R  -0.326 ± 0.059
97. P42Q  -0.316 ± 0.14
98. P36F  -0.307 ± 0.13
99. L41Q  -0.295 ± 0.12
100. L41P  -0.295 ± 0.077
101. V32N  -0.294 ± 0.14
102. P36T  -0.293 ± 0.1
103. P36Q  -0.289 ± 0.13
104. L44K  -0.289 ± 0.11
105. L44D  -0.288 ± 0.13
106. P42L  -0.287 ± 0.086
107. P42I  -0.283 ± 0.16
108. S39W  -0.278 ± 0.1
109. L44P  -0.269 ± 0.084
110. L41I  -0.268 ± 0.16
111. T34R  -0.257 ± 0.06
112. S39Y  -0.247 ± 0.12
113. P36R  -0.24 ± 0.064
114. T34Y  -0.23 ± 0.11
115. S39K  -0.228 ± 0.14
116. R37I  -0.228 ± 0.14
117. R37A  -0.223 ± 0.069
118. L41T  -0.214 ± 0.094
119. S39Q  -0.191 ± 0.16
120. P36A  -0.19 ± 0.076
121. P42M  -0.189 ± 0.11
122. L41E  -0.189 ± 0.084
123. V32L  -0.182 ± 0.1
124. L41M  -0.176 ± 0.12
125. V32M  -0.175 ± 0.1
126. L44S  -0.175 ± 0.076
127. V32K  -0.171 ± 0.11
128. V32E  -0.166 ± 0.09
129. L41V  -0.16 ± 0.073
130. P42G  -0.156 ± 0.053
131. E46Q  -0.147 ± 0.15
132. P42A  -0.147 ± 0.07
133. S39C  -0.141 ± 0.094
134. P42S  -0.131 ± 0.078
135. P42K  -0.13 ± 0.18
136. L44A  -0.12 ± 0.072
137. V32C  -0.113 ± 0.078
138. L44V  -0.107 ± 0.077
139. P36E  -0.103 ± 0.086
140. L44I  -0.101 ± 0.13
141. S39T  -0.099 ± 0.095
142. V32T  -0.094 ± 0.083
143. P42T  -0.093 ± 0.11
144. V32H  -0.091 ± 0.13
145. L44M  -0.087 ± 0.1
146. T34M  -0.071 ± 0.089
147. S39G  -0.071 ± 0.068
148. S39D  -0.068 ± 0.11
149. S39M  -0.053 ± 0.19
150. P36D  -0.049 ± 0.1
151. T34E  -0.039 ± 0.09
152. P42D  -0.023 ± 0.1
153. S39A  -0.02 ± 0.068
154. T34Q  -0.015 ± 0.1
155. T34S  0.003 ± 0.068
156. P42E  0.018 ± 0.079
157. E46D  0.027 ± 0.14
158. T34A  0.028 ± 0.061
159. S39R  0.032 ± 0.061
160. T34H  0.043 ± 0.12
161. S39H  0.098 ± 0.11
162. S39E  0.102 ± 0.11
163. T34G  0.108 ± 0.059
164. L44E  0.137 ± 0.089
165. V32I  0.178 ± 0.086
166. T34N  0.232 ± 0.12
167. S39N  0.333 ± 0.17
